Ends that are not written are not given here.
Target: T1, 12/1 peptide
T1 chain: MPRFMDYWEGLN-NH2
Experiment: ITC

B1: MDM2 18-125 (protein)
chain: QIPASEQETLVRPKPLLLKLLKSVGAQKDTYTMKEVLFYLGQYIMTKRLYDEKQQHIVYCSNDLLGDLFGVPSFSVKEHRKIYTMIYRNLVVVNQQESSDSGTSVSEN
Q: Which Kd does the source give for B1 here?
A: The Kd was 240 nM.

Source: paper PMC3164098 (2011)
